Results: publication PMC6525112, “Vitamin D (1,25(OH)2D3) induces α-1-antitrypsin synthesis by CD4^+ T cells, which is required for 1,25(OH)2D3-driven IL-10” (The Journal of Steroid Biochemistry and Molecular Biology, 2019)

B1: C3a (natural protein)
chain: not shown
notes: C3a anaphylatoxin, the cut product of complement C3; also called complement C3a; complement anaphylatoxin C3a; source: bought: Complement Technology, Inc
B2: Biotinylated-C3a (natural protein)
chain: not shown
modifications: biotin (biotinamidohexanoic acid 3-sulfo-N-hydroxysuccinimide ester, random, no more than one biotin per molecule of C3a)
notes: C3a anaphylatoxin, the cut product of complement C3; also called randomly biotinylated C3a; complement C3a; source: bought: Complement Technology Inc; biotinylated in-house

Experiments:
[1] = target: T1, NT-647 labelled recombinant α-1-antitrypsin (human, UniProt P01009 25-418, NT-647 label); experiment: MST; Monolith NT.115, LED 70%, MST power 20%; 0.5 μM NT-647 labelled α-1-antitrypsin incubated 30 min with C3a at 6 nM to 205 μM; conditions: both partners purified
T1 construct: alpha-1-antitrypsin, human, recombinant from E. coli (not glycosylated); In the functional row the recombinant protein was used without the label; also called NT-647 labeled AAT; source: E. coli recombinant system, purified in-house
T1 sequence (P01009 25-418): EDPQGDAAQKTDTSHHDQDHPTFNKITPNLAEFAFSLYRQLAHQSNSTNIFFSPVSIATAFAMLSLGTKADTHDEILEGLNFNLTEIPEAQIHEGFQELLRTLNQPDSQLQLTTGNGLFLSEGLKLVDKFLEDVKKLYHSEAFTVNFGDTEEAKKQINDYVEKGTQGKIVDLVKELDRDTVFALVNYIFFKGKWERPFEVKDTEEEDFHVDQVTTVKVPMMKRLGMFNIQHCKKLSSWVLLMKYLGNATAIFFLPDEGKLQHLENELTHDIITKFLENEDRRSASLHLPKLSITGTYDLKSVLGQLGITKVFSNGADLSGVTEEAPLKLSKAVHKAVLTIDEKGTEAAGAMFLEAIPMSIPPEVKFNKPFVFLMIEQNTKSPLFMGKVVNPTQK

[2] = target: T2, α-1-antitrypsin (analyte of the SPR assay) (human, UniProt P01009 25-418); experiment: SPR; Biacore T200; biotinylated C3a immobilised by amine coupling on CM5 chip (800-1500 RU); serially diluted α-1-antitrypsin injected at 10 μl/minute in Dulbecco's PBS; regeneration 2.0 M KCl; blank surface subtracted; conditions: both partners purified
T2 construct: alpha-1-antitrypsin, human; May be the same preparation as m1 or the unlabelled form of m2; also called AAT
T2 sequence (P01009 25-418): as above

Row | Binder | Kd [1] [µM] | Kd [2] [µM]
1 | B1 | 8.4 | 
2 | B2 |  | 7.53
